In patent US20220162684:
Where two headings read alike, the source gives them in different places.

Legend:
[1] = tested on: HHH peptide (biotinylated histidine trimer) (synthetic)
[2] = tested on: HHH peptide (biotinylated histidine trimer) (synthetic); conditions: quantum dot multivalent probe

CAAGCAGAAGACGGCATACGAGATCATGCTTCCCCAGGGAGATGGTTTGCCGGTGGGCAGGTTTAGGGTCTGCTCGGGATTGCGGAGGAACATGCGTCGCAAACGTGTAGATCTCGGTGGTCGCCGTATCATT [P7-B1-P5 aptamer]
EC50 ([1]; single aptamer on SureLight APC): 2.3 nM
EC50 ([1]; single aptamer on streptavidin-APC): 29.9 nM
EC50 ([1]; single aptamer on streptavidin-Alexa Fluor 647): 28 nM
EC50 [2]: 60 nM
